How the values were obtained:
[1] = biological target: Human MLH1 C-terminal domain (amino acids 486 to 756) (human) (UniProt P40692); assay: ITC
[2] = biological target: recombinant MutLα (MLH1-PMS2) (human, UniProt P40692;P54278); assay: pull-down
recombinant MutLα (MLH1-PMS2), sequence (P40692 whole entry, chain 1 of 2): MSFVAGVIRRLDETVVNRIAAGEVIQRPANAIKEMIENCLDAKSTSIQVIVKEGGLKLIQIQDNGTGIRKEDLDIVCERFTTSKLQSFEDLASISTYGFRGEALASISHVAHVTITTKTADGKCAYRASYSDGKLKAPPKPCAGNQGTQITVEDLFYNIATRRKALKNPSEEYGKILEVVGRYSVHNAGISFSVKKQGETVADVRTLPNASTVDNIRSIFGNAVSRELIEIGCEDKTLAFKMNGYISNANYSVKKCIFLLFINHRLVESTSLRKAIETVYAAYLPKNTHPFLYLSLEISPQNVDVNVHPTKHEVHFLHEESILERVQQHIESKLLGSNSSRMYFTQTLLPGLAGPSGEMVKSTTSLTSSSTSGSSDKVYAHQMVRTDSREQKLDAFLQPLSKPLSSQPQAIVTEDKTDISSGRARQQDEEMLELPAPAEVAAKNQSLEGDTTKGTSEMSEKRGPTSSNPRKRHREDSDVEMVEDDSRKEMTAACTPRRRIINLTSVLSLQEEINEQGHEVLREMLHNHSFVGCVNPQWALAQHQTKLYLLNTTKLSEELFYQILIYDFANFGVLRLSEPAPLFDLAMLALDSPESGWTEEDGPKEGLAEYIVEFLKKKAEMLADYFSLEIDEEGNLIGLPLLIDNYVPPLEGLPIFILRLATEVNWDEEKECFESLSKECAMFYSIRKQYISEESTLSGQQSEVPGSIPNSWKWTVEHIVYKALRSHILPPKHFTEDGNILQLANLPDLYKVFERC
recombinant MutLα (MLH1-PMS2), sequence (P54278 whole entry, chain 2 of 2): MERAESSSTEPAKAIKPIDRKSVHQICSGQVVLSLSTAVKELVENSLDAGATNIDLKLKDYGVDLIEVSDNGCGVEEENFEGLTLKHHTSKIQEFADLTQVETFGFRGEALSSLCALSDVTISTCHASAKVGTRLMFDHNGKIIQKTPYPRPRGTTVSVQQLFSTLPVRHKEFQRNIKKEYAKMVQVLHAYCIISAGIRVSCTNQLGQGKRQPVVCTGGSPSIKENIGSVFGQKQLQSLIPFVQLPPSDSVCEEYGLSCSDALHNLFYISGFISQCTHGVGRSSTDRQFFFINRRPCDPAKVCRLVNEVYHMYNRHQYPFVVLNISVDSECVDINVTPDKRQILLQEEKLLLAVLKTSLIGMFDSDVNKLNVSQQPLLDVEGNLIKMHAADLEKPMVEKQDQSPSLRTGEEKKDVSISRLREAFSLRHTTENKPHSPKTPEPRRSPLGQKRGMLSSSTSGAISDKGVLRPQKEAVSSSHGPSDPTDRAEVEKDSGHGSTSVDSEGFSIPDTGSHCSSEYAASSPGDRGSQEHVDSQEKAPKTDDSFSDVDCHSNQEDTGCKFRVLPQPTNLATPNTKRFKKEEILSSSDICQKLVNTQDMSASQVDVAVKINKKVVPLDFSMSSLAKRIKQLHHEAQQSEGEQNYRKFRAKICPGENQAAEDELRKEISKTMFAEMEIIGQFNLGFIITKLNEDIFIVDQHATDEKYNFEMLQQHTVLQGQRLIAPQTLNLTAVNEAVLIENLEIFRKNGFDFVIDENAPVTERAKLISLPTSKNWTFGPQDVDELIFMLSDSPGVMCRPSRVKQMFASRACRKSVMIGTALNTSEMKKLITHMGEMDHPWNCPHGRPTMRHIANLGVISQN

Human MLH1 C-terminal domain (amino acids 486 to 756) (human), sequence (P40692 486-756): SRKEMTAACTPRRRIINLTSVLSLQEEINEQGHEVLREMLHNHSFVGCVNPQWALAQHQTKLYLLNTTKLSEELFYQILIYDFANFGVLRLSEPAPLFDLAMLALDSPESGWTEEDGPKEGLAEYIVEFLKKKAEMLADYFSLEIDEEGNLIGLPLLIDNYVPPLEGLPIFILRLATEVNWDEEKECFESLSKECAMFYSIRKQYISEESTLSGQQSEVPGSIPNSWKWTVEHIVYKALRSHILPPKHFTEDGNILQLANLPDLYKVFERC

| Molecule | Kd [1] | binding result [2] |
| --- | --- | --- |
| FAN1 MIM 12-mer peptide (wt) | 3200 nM | – |
| GST-FAN1 (amino acids 118 to 177) (domain or fragment) KREVKQKISPYFKSNDVVCKNQDELRNRSVKVICLGSLASKLSRKYVKAKKSIDKDEEFA | – | binds |

Continued by falling Kd [1], values first:

| Kd [1] | binding result [2] | Molecule |
| --- | --- | --- |
| 2800 nM | – | FAN1 MIP 8-mer peptide (wt) |
| 70 nM | – | FAN1-derived 42-mer peptide containing MIP and MIM (wt) |

— article PMC8324060 (Science Advances, 2021)
